In patent US7141656:
Values belong to the molecule of their own block, whether it stands above or below them.

Experiments:
[1] = biological target: membrane-bound single-chain I-A^d-OVA (SCT1 gene, with the alpha chain transmembrane domain) on transfected NS-0 cells (mouse (I-A^d); chicken (OVA peptide)); assay: flow cytometry, FITC-conjugated 10-3.6 1:100 (negative control), T2 (SCT1-transfectant) cells
[2] = biological target: membrane-bound single-chain I-A^d-OVA (SCT1 gene, with the alpha chain transmembrane domain) on transfected NS-0 cells (mouse (I-A^d); chicken (OVA peptide)); assay: flow cytometry, FITC-conjugated 10-3.6 1:100 (negative control), T6 (SCT1-transfectant) cells
[3] = biological target: membrane-bound single-chain I-A^d-OVA (SCT1 gene, with the alpha chain transmembrane domain) on transfected NS-0 cells (mouse (I-A^d); chicken (OVA peptide)); assay: flow cytometry, FITC-conjugated 10-3.6 1:100 (negative control), T12 (SCT1-transfectant) cells
[4] = biological target: membrane-bound single-chain I-A^d-OVA (SCT1 gene, with the alpha chain transmembrane domain) on transfected NS-0 cells (mouse (I-A^d); chicken (OVA peptide)); assay: flow cytometry, FITC-conjugated AMS 32.1 1:100, T2 (SCT1-transfectant) cells
[5] = biological target: membrane-bound single-chain I-A^d-OVA (SCT1 gene, with the alpha chain transmembrane domain) on transfected NS-0 cells (mouse (I-A^d); chicken (OVA peptide)); assay: flow cytometry, FITC-conjugated AMS 32.1 1:100, T6 (SCT1-transfectant) cells
[6] = biological target: membrane-bound single-chain I-A^d-OVA (SCT1 gene, with the alpha chain transmembrane domain) on transfected NS-0 cells (mouse (I-A^d); chicken (OVA peptide)); assay: flow cytometry, FITC-conjugated AMS 32.1 1:100, T12 (SCT1-transfectant) cells
[7] = biological target: soluble single-chain I-A^d-OVA (SSC1 gene; 6xHis tag), produced in SF9 insect cells (mouse (I-A^d); chicken (OVA peptide)); assay: sandwich I-A^d ELISA, M5/114 capture, biotinylated AMS-32.1 probe; supernatant of virus clone C6
[8] = biological target: soluble single-chain I-A^d-OVA (SSC1 gene; 6xHis tag), produced in SF9 insect cells (mouse (I-A^d); chicken (OVA peptide)); assay: sandwich I-A^d ELISA, M5/114 capture, biotinylated AMS-32.1 probe; supernatant of virus clone F8
[9] = biological target: soluble single-chain I-A^d-OVA (SSC1 gene; 6xHis tag), produced in SF9 insect cells (mouse (I-A^d); chicken (OVA peptide)); assay: sandwich I-A^d ELISA, M5/114 capture, biotinylated AMS-32.1 probe, 405 nm; cotransfection supernatant undiluted
[10] = biological target: soluble single-chain I-A^d-OVA (SSC1 gene; 6xHis tag), produced in SF9 insect cells (mouse (I-A^d); chicken (OVA peptide)); assay: sandwich I-A^d ELISA, M5/114 capture, biotinylated AMS-32.1 probe, 405 nm; cotransfection supernatant diluted 1:2
[11] = biological target: soluble single-chain I-A^d-OVA (SSC1 gene; 6xHis tag), produced in SF9 insect cells (mouse (I-A^d); chicken (OVA peptide)); assay: sandwich I-A^d ELISA, M5/114 capture, biotinylated AMS-32.1 probe, 405 nm; cotransfection supernatant diluted 1:4
[12] = biological target: soluble single-chain I-A^d-OVA (SSC1 gene; 6xHis tag), produced in SF9 insect cells (mouse (I-A^d); chicken (OVA peptide)); assay: sandwich I-A^d ELISA, M5/114 capture, biotinylated AMS-32.1 probe, 405 nm; cotransfection supernatant diluted 1:8
[13] = biological target: Neuron Specific Enolase (NSE), in supernatant of SF9 cells infected with a recombinant Baculovirus; assay: sandwich I-A^d ELISA, M5/114 capture, biotinylated AMS-32.1 probe; supernatant of SF9 cells infected with NSE Baculovirus
[14] = biological target: soluble single-chain I-A^d-OVA with EE antibody tag (SCE1 gene), secreted by transfected NSO cells (mouse (I-A^d); chicken (OVA peptide)); assay: sandwich I-A^d ELISA of Example 18 (M5/114 capture, biotinylated AMS-32.1 probe); undiluted supernatant of E10 (SCE1 transfectant)
[15] = biological target: soluble single-chain I-A^d-OVA with EE antibody tag (SCE1 gene), secreted by transfected NSO cells (mouse (I-A^d); chicken (OVA peptide)); assay: sandwich I-A^d ELISA of Example 18 (M5/114 capture, biotinylated AMS-32.1 probe); undiluted supernatant of E11 (SCE1 transfectant)
[16] = biological target: soluble single-chain I-A^d-OVA (SSC1 gene; 6xHis tag), produced in SF9 insect cells (mouse (I-A^d); chicken (OVA peptide)); assay: sandwich I-A^d ELISA of Example 18 (M5/114 capture, biotinylated AMS-32.1 probe); sc I-A^d-OVA from insect cell culture (positive control)
[17] = biological target: full-length murine I-A^d/OVA 323-339 MHC class II fusion complex (pJRS165.1) expressed on NSO cells (mouse; chicken) (UniProt P04228); assay: flow cytometry, FITC-conjugated isotype matched irrelevant antibody 1:100, clone NSO/IA^d/OVA.A4
[18] = biological target: full-length murine I-A^d/OVA 323-339 MHC class II fusion complex (pJRS165.1) expressed on NSO cells (mouse; chicken) (UniProt P04228); assay: flow cytometry, FITC-conjugated isotype matched irrelevant antibody 1:100, clone NSO/IA^d/OVA.B2
[19] = biological target: full-length murine I-A^d/OVA 323-339 MHC class II fusion complex (pJRS165.1) expressed on NSO cells (mouse; chicken) (UniProt P04228); assay: flow cytometry, FITC-conjugated isotype matched irrelevant antibody 1:100, clone NSO/IA^d/OVA.B4
[20] = biological target: full-length murine I-A^d/OVA 323-339 MHC class II fusion complex (pJRS165.1) expressed on NSO cells (mouse; chicken) (UniProt P04228); assay: flow cytometry, FITC-conjugated isotype matched irrelevant antibody 1:100, clone NSO/IA^d/OVA.B5
[21] = biological target: murine class II MHC molecule I-A^d on A20.1-11 cells (mouse) (UniProt P04228); assay: flow cytometry, FITC-conjugated isotype matched irrelevant antibody 1:100, A20.1 cells (+ control)
[22] = biological target: T cell receptor of the murine T cell hybridoma DO11.10 (specific for OVA 323-339 in the context of I-A^d) (mouse); assay: cell-based or functional assay

Mean Fluorescence [1]: 22 | Mean Fluorescence [2]: 45.1 | Mean Fluorescence [3]: 45.9
Molecule: 10-3.6 anti-I-A^k antibody (PharMingen), isotype matched negative control

Mean Fluorescence [4]: 613 | Mean Fluorescence [5]: 418 | Mean Fluorescence [6]: 911 | Absorbance [7]: 1.56 | Absorbance [8]: 1.45 | Absorbance [9]: 0.857 | Absorbance [10]: 0.524 | Absorbance [11]: 0.305 | Absorbance [12]: 0.165 | Absorbance [13]: 0.098 | Absorbance [14]: 0.781 | Absorbance [15]: 0.96 | Absorbance [16]: 2.44
Molecule: AMS-32.1 anti-IA^d monoclonal antibody (PharMingen)

peak channel fluorescence [17]: 34 | peak channel fluorescence [18]: 14 | peak channel fluorescence [19]: 11 | peak channel fluorescence [20]: 10 | peak channel fluorescence [21]: 5
Molecule: FITC-conjugated anti-IA^k antibody (Pharmingen), isotype matched irrelevant antibody, Example 13

IL-2 ELISA result (Absorbance), DO11.10 with T2 (SCT1 transfectant) cells [22]: 0.758 | IL-2 ELISA result (Absorbance), DO11.10 with T6 (SCT1 transfectant) cells [22]: 0.307 | IL-2 ELISA result (Absorbance), DO11.10 with T12 (SCT1 transfectant) cells [22]: 1.03
B1: membrane-bound single-chain I-A^d-OVA (SCT1 gene, with the alpha chain transmembrane domain) on transfected NS-0 cells (peptide-MHC)
chain: TMALQIPSLLLSAAVVVLMVLSSPRTLSISQAVHAAHAEINEAGRASGGGGSGGGGNSERHFVVQFKGECYYTNGTQRIRLVTRYIYNREEYVRYDSDVGEYRAVTELGRPDAEYWNSQPEILERTRAEVDTACRHNYEGPETSTSLRRLEQPNVAISLSRTEALNHHNTLVCSVTDFYPAKIKVRWFRNGQEETVGVSSTQLIRNGDWTFQVLVMLEMTPHQGEVYTCHVEHPSLKSPITVEWTSGGGGSGGGGSGGGGSGGGGSSSEDDIEADHVGFYGTTVYQSPGDIGQYTHEFDGDELFYVDLDKKKTVWRLPEFGQLILFEPQGGLQNIAAEKHNLGILTKRSNFTPATNEAPQATVFPKSPVLLGQPNTLICFVDNIFPPVINITWLRNSKSVTDGVYETSFLVNRDHSFHKLSYLTFIPSDDDIYDCKVEHWGLEEPVLKHWEPEIPAPMSELTETVVCALGLSVGLVGIVVGTIFIIQGLRSGGTSRHPGPL

IL-2 concentration in DO11 super (U/ml) at 39 ng/well immobilized scIA^d-OVA, extended dilution [22]: 0 U/ml | IL-2 concentration in DO11 super (U/ml) at 78 ng/well immobilized sc IA^d-OVA [22]: 45 U/ml | IL-2 concentration in DO11 super (U/ml) at 78 ng/well immobilized scIA^d-OVA, extended dilution [22]: 17 U/ml | IL-2 concentration in DO11 super (U/ml) at 156 ng/well immobilized sc IA^d-OVA [22]: 100 U/ml | IL-2 concentration in DO11 super (U/ml) at 156 ng/well immobilized scIA^d-OVA, extended dilution [22]: 24 U/ml | IL-2 concentration in DO11 super (U/ml) at 312 ng/well immobilized sc IA^d-OVA [22]: 109 U/ml | IL-2 concentration in DO11 super (U/ml) at 312 ng/well immobilized scIA^d-OVA, extended dilution [22]: 35 U/ml | IL-2 concentration in DO11 super (U/ml) at 625 ng/well immobilized sc IA^d-OVA [22]: 116 U/ml | IL-2 concentration in DO11 super (U/ml) at 625 ng/well immobilized scIA^d-OVA, extended dilution [22]: 38 U/ml | IL-2 concentration in DO11 super (U/ml) at 1250 ng/well immobilized sc IA^d-OVA [22]: 126 U/ml | IL-2 concentration in DO11 super (U/ml) at 2500 ng/well immobilized sc IA^d-OVA [22]: 143 U/ml | IL-4 concentration in DO11 super (U/ml) at 78 ng/well immobilized sc IA^d-OVA [22]: 7 U/ml | IL-4 concentration in DO11 super (U/ml) at 156 ng/well immobilized sc IA^d-OVA [22]: 10 U/ml | IL-4 concentration in DO11 super (U/ml) at 312 ng/well immobilized sc IA^d-OVA [22]: 16 U/ml | IL-4 concentration in DO11 super (U/ml) at 625 ng/well immobilized sc IA^d-OVA [22]: 15 U/ml | IL-4 concentration in DO11 super (U/ml) at 1250 ng/well immobilized sc IA^d-OVA [22]: 20 U/ml | IL-4 concentration in DO11 super (U/ml) at 2500 ng/well immobilized sc IA^d-OVA [22]: 23 U/ml | IL-r [IL-4] concentration in DO11 super (U/ml) at 39 ng/well immobilized scIA^d-OVA, extended dilution [22]: 0 U/ml | IL-r [IL-4] concentration in DO11 super (U/ml) at 78 ng/well immobilized scIA^d-OVA, extended dilution [22]: 0.8 U/ml | IL-r [IL-4] concentration in DO11 super (U/ml) at 156 ng/well immobilized scIA^d-OVA, extended dilution [22]: 0.9 U/ml | IL-r [IL-4] concentration in DO11 super (U/ml) at 312 ng/well immobilized scIA^d-OVA, extended dilution [22]: 1.5 U/ml | IL-r [IL-4] concentration in DO11 super (U/ml) at 625 ng/well immobilized scIA^d-OVA, extended dilution [22]: 2 U/ml
B2: soluble single-chain I-A^d-OVA (SSC1 gene; 6xHis tag), produced in SF9 insect cells (peptide-MHC)
chain: TMALQIPSLLLSAAVVVLMVLSSPRTLSISQAVHAAHAEINEAGRASGGGGSGGGGNSERHFVVQFKGECYYTNGTQRIRLVTRYIYNREEYVRYDSDVGEYRAVTELGRPDAEYWNSQPEILERTRAEVDTACRHNYEGPETSTSLRRLEQPNVAISLSRTEALNHHNTLVCSVTDFYPAKIKVRWFRNGQEETVGVSSTQLIRNGDWTFQVLVMLEMTPHQGEVYTCHVEHPSLKSPITVEWTSGGGGSGGGGSGGGGSGGGGSSSEDDIEADHVGFYGTTVYQSPGDIGQYTHEFDGDELFYVDLDKKKTVWRLPEFGQLILFEPQGGLQNIAAEKHNLGILTKRSNFTPATNEAPQATVFPKSPVLLGQPNTLICFVDNIFPPVINITWLRNSKSVTDGVYETSFLVNRDHSFHKLSYLTFIPSDDDIYDCKVEHWGLEEPVLKHWSRASHHHHHH
